Laboratory results taken from patent publication US20240117018A1.

Assays:
Assay in all cases: cell-based or functional assay
[1] = biological target: Env of HIV-1 pseudovirus 249M B10 (HIV-1)
[2] = biological target: Env of HIV-1 pseudovirus 6535.3 (HIV-1)
[3] = biological target: Env of HIV-1 pseudovirus 928-28 (HIV-1)
[4] = biological target: Env of HIV-1 pseudovirus CAAN5342.A2 (HIV-1)
[5] = biological target: Env of HIV-1 pseudovirus CAP45.2.00.G3 (HIV-1)
[6] = biological target: Env of HIV-1 pseudovirus Ce0393_C3 (HIV-1)
[7] = biological target: Env of HIV-1 pseudovirus Ce1086_B2 (HIV-1)
[8] = biological target: Env of HIV-1 pseudovirus Ce2010_F5 (HIV-1)
[9] = biological target: Env of HIV-1 pseudovirus Ce704809221_1B3 (HIV-1)
[10] = biological target: Env of HIV-1 pseudovirus HIV-001428-2.42 (HIV-1)
[11] = biological target: Env of HIV-1 pseudovirus HIV-16055-2.3 (HIV-1)
[12] = biological target: Env of HIV-1 pseudovirus HIV-16845-2.22 (HIV-1)
[13] = biological target: Env of HIV-1 pseudovirus QH0692.42 (HIV-1)
[14] = biological target: Env of HIV-1 pseudovirus WEAU_d15_410_787 (HIV-1)
[15] = biological target: Env of HIV-1 pseudovirus ZM109F.PB4 (HIV-1)
[16] = biological target: HIV-1 Env pseudovirus 0815.v3.c3 (HIV-1)
[17] = biological target: HIV-1 Env pseudovirus 1054_07_TC4_1499 (HIV-1)
[18] = biological target: HIV-1 Env pseudovirus 246F C1G (HIV-1)
[19] = biological target: HIV-1 Env pseudovirus 249M B10 (HIV-1)
[20] = biological target: HIV-1 Env pseudovirus 62357_14_D3_4589 (HIV-1)
[21] = biological target: HIV-1 Env pseudovirus 6240_08_TA5_4622 (HIV-1)
[22] = biological target: HIV-1 Env pseudovirus 6244_13_B5_4576 (HIV-1)
[23] = biological target: HIV-1 Env pseudovirus AC10.0.29 (HIV-1)
[24] = biological target: HIV-1 Env pseudovirus BF1266.431a (HIV-1)
[25] = biological target: HIV-1 Env pseudovirus C3347.c11 (HIV-1)
[26] = biological target: HIV-1 Env pseudovirus CAP210.2.00.E8 (HIV-1)
[27] = biological target: HIV-1 Env pseudovirus Ce1172_H1 (HIV-1)
[28] = biological target: HIV-1 Env pseudovirus Ce704809221_1B3 (HIV-1)
[29] = biological target: HIV-1 Env pseudovirus Du172.17 (HIV-1)
[30] = biological target: HIV-1 Env pseudovirus HIV-001428-2.42 (HIV-1)
[31] = biological target: HIV-1 Env pseudovirus RHPA4259.7 (HIV-1)
[32] = biological target: HIV-1 Env pseudovirus ZM109F.PB4 (HIV-1)
[33] = biological target: HIV-1 Env pseudovirus ZM233M.PB6 (HIV-1)
[34] = biological target: HIV-1 Env pseudovirus CNE19 (HIV-1)
[35] = biological target: HIV-1 Env pseudovirus CNE30 (HIV-1)
[36] = biological target: HIV-1 Env pseudovirus CNE58 (HIV-1)

10E8 (antibody) gave an IC50 [1] of 1.27 µg/mL, an IC80 [1] of 9.05 µg/mL and an IC50 [2] of 0.081 µg/mL. It also gave an IC80 [2] of 1.32 µg/mL, an IC50 [3] of 0.384 µg/mL and an IC80 [3] of 1.96 µg/mL. The IC50 [4] was 1.28 µg/mL, the IC80 [4] was 9.28 µg/mL and the IC50 [5] was 1.82 µg/mL. The IC80 [5] was over 10 µg/mL, the IC50 [6] was 1.18 µg/mL and the IC80 [6] was 7.42 µg/mL. It also gave an IC50 [7] of 1.16 µg/mL, an IC80 [7] of 6.93 µg/mL and an IC50 [8] of 1.84 µg/mL. The IC80 [8] was 8.61 µg/mL, the IC50 [9] was 0.058 µg/mL and the IC80 [9] was 0.319 µg/mL. For the same substance, the IC50 [10] was 0.809 µg/mL, the IC80 [10] was 7.3 µg/mL and the IC50 [11] was 0.722 µg/mL. It also gave an IC80 [11] of 6.5 µg/mL, an IC50 [12] of 0.068 µg/mL and an IC80 [12] of 0.495 µg/mL. It also gave an IC50 [13] of 0.442 µg/mL, an IC80 [13] of 4.05 µg/mL and an IC50 [14] of over 10 µg/mL. It also gave an IC80 [14] of over 10 µg/mL, an IC50 [15] of 0.295 µg/mL and an IC80 [15] of 1.89 µg/mL.

With VRC01 (antibody) the IC50 (Titer in TZM.bl cells) [16] was 0.06 µg/mL, the IC80 (Titer in TZM.bl cells) [16] was 0.13 µg/mL and the IC50 (Titer in TZM.bl cells) [17] was 0.71 µg/mL. For the same substance, the IC80 (Titer in TZM.bl cells) [17] was 2.85 µg/mL, the IC50 (Titer in TZM.bl cells) [18] was over 10 µg/mL and the IC80 (Titer in TZM.bl cells) [18] was over 10 µg/mL. For the same substance, the IC50 (Titer in TZM.bl cells) [19] was 0.13 µg/mL, the IC80 (Titer in TZM.bl cells) [19] was 0.46 µg/mL and the IC50 (Titer in TZM.bl cells) [20] was 0.96 µg/mL. The IC80 (Titer in TZM.bl cells) [20] was 4.68 µg/mL, the IC50 (Titer in TZM.bl cells) [21] was 0.61 µg/mL and the IC80 (Titer in TZM.bl cells) [21] was 1.82 µg/mL. For the same substance, the IC50 (Titer in TZM.bl cells) [22] was 0.21 µg/mL, the IC80 (Titer in TZM.bl cells) [22] was 0.53 µg/mL and the IC50 (Titer in TZM.bl cells) [23] was 2.2 µg/mL. For the same substance, the IC80 (Titer in TZM.bl cells) [23] was 6.5 µg/mL, the IC50 (Titer in TZM.bl cells) [24] was 0.07 µg/mL and the IC80 (Titer in TZM.bl cells) [24] was 0.23 µg/mL. For the same substance, the IC50 (Titer in TZM.bl cells) [25] was 0.17 µg/mL, the IC80 (Titer in TZM.bl cells) [25] was 0.58 µg/mL and the IC50 (Titer in TZM.bl cells) [26] was over 50 µg/mL. It also gave an IC80 (Titer in TZM.bl cells) [26] of over 50 µg/mL, an IC50 (Titer in TZM.bl cells) [27] of over 10 µg/mL and an IC80 (Titer in TZM.bl cells) [27] of over 10 µg/mL. For the same substance, the IC50 (Titer in TZM.bl cells) [28] was 0.55 µg/mL, the IC80 (Titer in TZM.bl cells) [28] was 2.05 µg/mL and the IC50 (Titer in TZM.bl cells) [29] was over 50 µg/mL. For the same substance, the IC80 (Titer in TZM.bl cells) [29] was over 50 µg/mL, the IC50 (Titer in TZM.bl cells) [30] was 0.02 µg/mL and the IC80 (Titer in TZM.bl cells) [30] was 0.06 µg/mL. For the same substance, the IC50 (Titer in TZM.bl cells) [31] was 0.06 µg/mL, the IC80 (Titer in TZM.bl cells) [31] was 0.185 µg/mL and the IC50 (Titer in TZM.bl cells) [32] was 0.13 µg/mL. For the same substance, the IC80 (Titer in TZM.bl cells) [32] was 0.75 µg/mL, the IC50 (Titer in TZM.bl cells) [33] was 2 µg/mL and the IC80 (Titer in TZM.bl cells) [33] was 9.3 µg/mL.

For N49P7.2 (antibody), the IC50 [17] was 2.04 µg/mL, the IC80 [17] was 10.7 µg/mL and the MPI [17] was 99. The IC50 [18] was 0.049 µg/mL, the IC80 [18] was 0.192 µg/mL and the MPI [18] was 100. For the same substance, the IC50 [19] was 0.095 µg/mL, the IC80 [19] was 0.349 µg/mL and the MPI [19] was 100. For the same substance, the IC50 [20] was 0.03 µg/mL, the IC80 [20] was 0.121 µg/mL and the MPI [20] was 100. For the same substance, the IC50 [21] was 0.812 µg/mL, the IC80 [21] was 2.87 µg/mL and the MPI [21] was 100. For the same substance, the IC50 [22] was 0.331 µg/mL, the IC80 [22] was 1.04 µg/mL and the MPI [22] was 100. The IC50 [23] was 44.2 µg/mL, the IC80 [23] was over 50 µg/mL and the MPI [23] was 53. For the same substance, the IC50 [24] was 0.029 µg/mL, the IC80 [24] was 0.159 µg/mL and the MPI [24] was 100. For the same substance, the IC50 [26] was 3.94 µg/mL, the IC80 [26] was 21.7 µg/mL and the MPI [26] was 95. It also gave an IC50 [34] of 0.033 µg/mL, an IC80 [34] of 0.129 µg/mL and an MPI [34] of 100. For the same substance, the IC50 [35] was 0.362 µg/mL, the IC80 [35] was 1.2 µg/mL and the MPI [35] was 100. The IC50 [36] was 0.045 µg/mL, the IC80 [36] was 0.129 µg/mL and the MPI [36] was 100. It also gave an IC50 [27] of over 50 µg/mL, an IC80 [27] of over 50 µg/mL and an MPI [27] of 6. The IC50 [28] was 0.874 µg/mL, the IC80 [28] was 3.88 µg/mL and the MPI [28] was 100. It also gave an IC50 [29] of 0.29 µg/mL, an IC80 [29] of 1.08 µg/mL and an MPI [29] of 100. It also gave an IC50 [30] of 0.01 µg/mL, an IC80 [30] of 0.036 µg/mL and an MPI [30] of 100. It also gave an IC50 [31] of 0.1 µg/mL, an IC80 [31] of 0.289 µg/mL and an MPI [31] of 100. It also gave an IC50 [32] of 0.065 µg/mL, an IC80 [32] of 0.321 µg/mL and an MPI [32] of 99. It also gave an IC50 [33] of 0.475 µg/mL, an IC80 [33] of 2.14 µg/mL and an MPI [33] of 99.
